Values quoted from earlier work as cited in patent US7776558B2, “Human G protein-coupled receptor and modulators thereof for the treatment of cell death-related disorders” (Arena Pharmaceuticals, Inc., priority 2003, dated 2010).

Tests used:
[1] = target: T1, FPRL2 (Homo sapiens, UniProt P25089); conditions: cited from earlier work
T1 sequence (P25089 1-353): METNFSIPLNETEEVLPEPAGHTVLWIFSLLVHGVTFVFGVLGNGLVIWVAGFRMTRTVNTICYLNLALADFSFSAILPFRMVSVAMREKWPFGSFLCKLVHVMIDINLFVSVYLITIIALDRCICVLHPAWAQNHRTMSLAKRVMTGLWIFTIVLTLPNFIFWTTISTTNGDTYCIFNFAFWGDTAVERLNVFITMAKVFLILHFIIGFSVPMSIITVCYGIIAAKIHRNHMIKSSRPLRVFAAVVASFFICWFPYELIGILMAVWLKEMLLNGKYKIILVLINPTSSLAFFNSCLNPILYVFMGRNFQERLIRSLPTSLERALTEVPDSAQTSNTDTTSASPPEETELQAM

[2] = target: T2, FPRL2 on mature human dendritic cells (Homo sapiens, UniProt P25089); conditions: Yang et al. 2002; cited from earlier work
T2 construct: host or cells: mature human dendritic cells
T2 sequence (P25089 1-353): T1 sequence (P25089 1-353)

Compound	Ligand status at FPRL2 [1]	Binding to FPRL2 [2]	Intracellular Ca2+ [2]
CCCCC[C@H](O)/C=C/C=C\C=C\C=C\[C@@H](O)[C@@H](O)CCCC(=O)O [lipoxin A4]	shown not to be ligands for FPRL2	–	–
WKYMVm	–	bind to FPRL2 on mature human dendritic cells	elicit an increase in intracellular Ca^2+
